Measurements as given in paper PMC8415103 (Biochemistry, 2021).

Experiments:
NikS = NikS (Streptomyces tendae, UniProt Q9F2E5); test: steady-state amide ligation kinetics, substrate inhibition model; format: biochemical; settings: HPHT as co-substrate
[1] = substrate: N[C@H](C(=O)O)[C@H]1O[C@@H](n2ccc(=O)[nH]c2=O)[C@H](OP(=O)(O)O)[C@@H]1O; test: steady-state amide ligation kinetics, Michaelis-Menten fit; format: biochemical, Streptomyces asoensis; settings: 200 μM CPOAA, 1 mM ATP, 3 mM MgCl2
[2] = substrate: N[C@H](C(=O)O)[C@H]1O[C@@H](n2ccc(=O)[nH]c2=O)[C@H](O)[C@@H]1O; test: as above; format: biochemical, Streptomyces asoensis; settings: 200 μM CPOAA, 1 mM ATP, 3 mM MgCl2
[3] = substrate: N[C@H](C(=O)O)[C@H]1O[C@@H](n2cc(C(=O)O)c(=O)[nH]c2=O)[C@H](O)[C@@H]1O; test: as above; format: biochemical, Streptomyces asoensis; settings: 200 μM CPOAA, 1 mM ATP, 3 mM MgCl2
[4] = substrate: N[C@H](C(=O)O)[C@H]1O[C@@H](n2ccc(=O)[nH]c2=O)[C@H](OP(=O)(O)O)[C@@H]1O; test: steady-state amide ligation kinetics, substrate inhibition model; format: biochemical, Streptomyces tendae; settings: HPHT as co-substrate

N[C@H](C(=O)O)[C@H]1O[C@@H](n2ccc(=O)[nH]c2=O)[C@H](OP(=O)(O)O)[C@@H]1O [compound 6, AHAP]
Ki (NikS): 111 ± 38 µM

B1: PolG (Streptomyces asoensis) (protein)
chain: MFLLLNNKPILHRVPEWFPQARQELIVVSTRSGLGTSAFPELARGFRHLHLVSSLDRPGLEEDLVALCRRFGVRRVLSTGEREVLPAATLRERLGLPGQDVACATAYRDKYTMKSLLTEAGIPVAPMRRLASPADLDAFADEAGFPLVVKSRLSGGSNGTRVLWDGDALTAFTDDWAAGRTAAPDLAEAWVEGDFYHINGLMRDGRILLAQPSYQPYSDWFSVAYDAPGMSGMMPDEDPMSARLRDTAAKVVATMPAVPGVCAFQVEFFHTPDDRLVVCETACRAGGSRMVETHEDTLGVHLHGASLLGQAGRSDQVTIRPTGRRQGYARFPSAHGVLRHLPRRSPLPQTLLYTATGEEGRHYDPATSLGSSVAEIVVSLTGPDTAAELLAVETWWESAVVWQDRRNPVPDRFKSVHRVRPDTRERALHV
Km [1]: 9.1 ± 0.4 µM | kcat [1]: 0.0583 ± 0.0033 s⁻¹ | Km [2]: 931 ± 122 µM | kcat [2]: 0.0112 ± 0.00067 s⁻¹ | Km [3]: 334 ± 68 µM | kcat [3]: 0.0233 ± 0.0067 s⁻¹

B2: NikS (Streptomyces tendae) (protein)
chain: MKAEQGPFLLLNTKKIVSRLHEWFPDAARELVVVTTKADIPSADISAYARRFLHLEVVPNLWELSDDELLALARRFGVRRILSLGEREVLRAARIRAELGLPGQSLASATAYRDKHVMKSTLAAAGIDVAPMRKFRTNDDLAEFAWKVGFPVVVKELDSGASNGTVVLMDEEDLRALPERATAAPRLAEAWVEGDFYHVNGLMKDGEVVLAVPSRNLYSDWFSVAYDAPTMTGMMPDDHPLSERLRSTARQVVAALPAVPDLCAFHLELFHTADDRVVVCEIACRAGAALVSDVHEAVLGVNFHGASLLGQAGRGDQVEIRPTGERLGFVWFPPAKGVLRALPDTCPLPGTVSYRPCGDIGRRYGSSSGLGRPIAEMVFRLTEPDTGAELRRIEEWWDDNVVWEHRTNAVPDRWKTPRRKPADA
Km [4]: 10.9 ± 2.6 µM | kcat [4]: 0.0283 ± 0.005 s⁻¹
